Measurements: article PMC2610409

Target: RAD18-CFP (human) (UniProt Q9NS91)
Experiment: FRET or BRET

UniProt Q9NS91, sequence (Q9NS91 whole entry): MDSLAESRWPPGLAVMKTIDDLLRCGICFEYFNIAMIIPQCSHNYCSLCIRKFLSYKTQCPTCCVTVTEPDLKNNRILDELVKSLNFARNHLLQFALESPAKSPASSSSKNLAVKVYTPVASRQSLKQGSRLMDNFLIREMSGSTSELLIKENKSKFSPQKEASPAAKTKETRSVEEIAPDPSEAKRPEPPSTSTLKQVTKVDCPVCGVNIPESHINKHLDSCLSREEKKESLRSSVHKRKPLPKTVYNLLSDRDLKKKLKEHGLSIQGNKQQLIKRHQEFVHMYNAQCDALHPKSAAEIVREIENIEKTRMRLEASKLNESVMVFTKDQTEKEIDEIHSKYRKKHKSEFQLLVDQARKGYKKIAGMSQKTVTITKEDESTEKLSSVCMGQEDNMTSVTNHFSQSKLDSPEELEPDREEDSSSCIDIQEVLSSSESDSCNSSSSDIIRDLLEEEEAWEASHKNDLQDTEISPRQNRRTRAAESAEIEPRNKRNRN

FRET efficiency: 72%
Substance: RAD6A-YFP (from UniProt P49459 1-152) (natural protein)
